Assay results: the supplement of paper PMC6757056
± gives the standard deviation of the averaged measurements.

B1: library; a variant is named by its letters at N, in order (parent)
chain: GCUGUCACCGGUGUAUUACCCUAGUGGUCGACCGGUCUGAUGAGUCUNNNNNNAGACGAAACAGC

Tests used:
hypoxanthine [1] = variants of: B1; experiment: normalized RNA/DNA level with ligand (relative to sTRSVctl = 100) (log10 (% of sTRSVctl)); ligand: hypoxanthine (xanthine aptamer); higher = less ribozyme self-cleavage, higher mRNA level; conditions: ligand concentration (+) RNA-Seq: 5 mM, HEK293T, reporter: mCherry (pCS4076), ligand present: yes
Method in brief: (§1)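 Total RNA, extracted with EDTA 72 h after HEK293T cells were transfected with 4 µg per 6-well well of reporter-linked ribozyme switch library plasmids, was reverse-transcribed, amplified, barcoded and sequenced. Ligand, if used, was added 1 h before transfection. RNA level was derived from RNA reads divided by DNA reads and normalized to a spiked-in non-cleaving sequence or to the top sequences. This was multiplied by 100 and log10-transformed, with the top set of 25 sequences and a ≥100 DNA read minimum.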

hypoxanthine [2] = variants of: B1; experiment: normalized RNA/DNA level without ligand (relative to sTRSVctl = 100) (log10 (% of sTRSVctl)); ligand: hypoxanthine (xanthine aptamer); higher = less ribozyme self-cleavage, higher mRNA level; conditions: HEK293T, reporter: mCherry (pCS4076), ligand present: no
Method in brief: as §1

Variant	normalized RNA/DNA level with ligand (log10) (hypoxanthine [1])	normalized RNA/DNA level without ligand (log10) (hypoxanthine [2])
UGUCUG	1.93 ± 0.037	1.77 ± 0.03
UGUCUU	2.01 ± 0.033	1.907 ± 0.0099
UGUCUC	1.999 ± 0.0092	2.013 ± 0.019
UGUGGU	1.89 ± 0.037	1.68 ± 0.017
UGUGGC	1.99 ± 0.04	1.8784 ± 0.00098
UGUGGG	1.93 ± 0.014	1.64 ± 0.035
CGUCUU	2.01 ± 0.035	1.958 ± 0.018
CGUCUC	2 ± 0.023	2.03 ± 0.017
CGUCUG	1.95 ± 0.11	1.957 ± 0.013
CGUCUA	1.93 ± 0.025	1.87 ± 0.029
CGUAUU	1.96 ± 0.026	1.732 ± 0.015
CGUAUC	1.93 ± 0.07	1.902 ± 0.018
CGUAUG	1.91 ± 0.035	1.84 ± 0.0095
GGUACC	1.94 ± 0.067	1.921 ± 0.016
GGUACA	1.94 ± 0.03	1.796 ± 0.0062
AGUCCC	1.94 ± 0.026	1.931 ± 0.012
AGUCCA	1.95 ± 0.05	1.868 ± 0.015
AGUCCG	1.9 ± 0.09	1.528 ± 0.0051
GGGCUU	1.98 ± 0.069	1.96 ± 0.029
GGGCUC	1.9567 ± 0.00028	2 ± 0.093
UGUAGU	1.88 ± 0.029	1.5 ± 0.071
UGUAGC	1.94 ± 0.046	1.796 ± 0.0085
UGUAGG	1.895 ± 0.002	1.5 ± 0.015
AGUGCC	1.94 ± 0.033	1.838 ± 0.0064

Variant	normalized RNA/DNA level with ligand (log10) (hypoxanthine [1])	normalized RNA/DNA level without ligand (log10) (hypoxanthine [2])
AGUGCA	1.92 ± 0.051	1.78 ± 0.03
AGUGCG	1.84 ± 0.02	1.365 ± 0.0051
AGUGCU	1.998 ± 0.013	1.85 ± 0.023
GGUCCC	1.92 ± 0.05	1.902 ± 0.0045
GGUCCG	2.01 ± 0.061	1.829 ± 0.018
GGUCCU	1.941 ± 0.017	1.96 ± 0.061
UGGUCC	1.98 ± 0.035	1.93 ± 0.039
UGGUCU	1.91 ± 0.028	1.91 ± 0.025
UGGUAA	1.902 ± 0.013	1.712 ± 0.011
UGGUAC	1.98 ± 0.088	1.85 ± 0.041
UGGUAG	1.88 ± 0.028	1.55 ± 0.011
UGGUAU	1.907 ± 0.0077	1.707 ± 0.017
AGGGGU	1.855 ± 0.0023	1.61 ± 0.032
AGGGGA	1.908 ± 0.015	1.61 ± 0.053
CGGUGG	1.862 ± 0.011	1.37 ± 0.032
CGGUGA	1.93 ± 0.042	1.57 ± 0.042
CGGUGC	1.96 ± 0.052	1.8 ± 0.051
AGUGGU	1.898 ± 0.015	1.55 ± 0.056
AGUGGG	1.89 ± 0.076	1.543 ± 0.007
UGUACG	1.929 ± 0.01	1.83 ± 0.044
UGUACC	2 ± 0.033	1.92 ± 0.023
CGGGAU	1.94 ± 0.064	1.608 ± 0.016
CGGGAG	1.87 ± 0.04	1.63 ± 0.021
CGGGAC	1.96 ± 0.078	1.726 ± 0.0062

Variant	normalized RNA/DNA level with ligand (log10) (hypoxanthine [1])	normalized RNA/DNA level without ligand (log10) (hypoxanthine [2])
CGGGAA	1.85 ± 0.029	1.53 ± 0.046
CGGGUC	2.01 ± 0.05	1.946 ± 0.017
CGGGUG	1.893 ± 0.013	1.7 ± 0.05
CGGGGA	1.97 ± 0.097	1.76 ± 0.035
CGGGGG	1.86 ± 0.032	1.25 ± 0.059
CGGGGU	1.99 ± 0.0036	1.908 ± 0.0053
GGUCGC	1.97 ± 0.029	1.74 ± 0.04
GGUCGA	1.954 ± 0.0067	1.82 ± 0.067
GGUCGU	1.99 ± 0.08	1.98 ± 0.092
GGUCGG	1.87 ± 0.031	1.65 ± 0.021
GGGGUG	1.95 ± 0.027	1.562 ± 0.0074
GGGGUU	1.98 ± 0.037	1.96 ± 0.034
GGGGUC	1.94 ± 0.025	1.84 ± 0.03
GGUGAA	1.9 ± 0.061	1.65 ± 0.024
AGUAUG	1.824 ± 0.017	1.39 ± 0.043
AGUAUC	1.96 ± 0.044	1.931 ± 0.013
AGUAUU	1.922 ± 0.015	1.86 ± 0.037
CGUACG	1.92 ± 0.056	1.87 ± 0.028
CGUACU	1.954 ± 0.018	1.8632 ± 0.0012
UGGCGG	1.97 ± 0.14	1.69 ± 0.024
UGGCGU	1.961 ± 0.015	1.68 ± 0.064
UGGCGC	2 ± 0.04	2 ± 0.027
UGUAUU	1.95 ± 0.056	1.8992 ± 0.0009
UGUAUC	1.94 ± 0.052	1.92 ± 0.013

Variant	normalized RNA/DNA level with ligand (log10) (hypoxanthine [1])	normalized RNA/DNA level without ligand (log10) (hypoxanthine [2])
UGUAUA	1.97 ± 0.029	1.866 ± 0.0081
AGGGUG	1.886 ± 0.012	1.54 ± 0.09
CGGGCG	1.973 ± 0.012	1.76 ± 0.024
CGGGCA	1.98 ± 0.049	1.8985 ± 0.0018
CGGGCC	1.944 ± 0.0098	1.99 ± 0.026
GGGCCU	2.06 ± 0.045	2.014 ± 0.0022
GGGCCC	1.95 ± 0.02	1.98 ± 0.029
UGUCGA	1.9 ± 0.061	1.65 ± 0.049
UGUCGC	1.9324 ± 0.0018	1.89 ± 0.1
AGGUCU	1.95 ± 0.028	1.813 ± 0.013
AGGUCC	1.962 ± 0.017	1.856 ± 0.0097
UGUCAU	1.939 ± 0.01	1.823 ± 0.0053
UGUCAC	1.9615 ± 0.00089	1.885 ± 0.012
UGUCAA	1.9 ± 0.035	1.79 ± 0.019
UGUCAG	1.89 ± 0.03	1.74 ± 0.07
CGGCGG	1.889 ± 0.0076	1.48 ± 0.11
CGGCGA	1.95 ± 0.029	1.743 ± 0.017
CGGCGU	1.929 ± 0.017	1.91 ± 0.06
CGGCGC	2.005 ± 0.013	1.93 ± 0.064
GGUGUC	1.916 ± 0.0061	1.846 ± 0.018
GGGGAC	1.91 ± 0.068	1.613 ± 0.0032
GGGGAU	1.895 ± 0.015	1.749 ± 0.0068
UGGGGU	1.915 ± 0.017	1.64 ± 0.034
UGGGGG	1.883 ± 0.0071	1.57 ± 0.054

Variant	normalized RNA/DNA level with ligand (log10) (hypoxanthine [1])	normalized RNA/DNA level without ligand (log10) (hypoxanthine [2])
UGGGGC	1.99 ± 0.025	1.94 ± 0.0063
AGUCAG	1.86 ± 0.13	1.64 ± 0.041
AGUCAA	1.89 ± 0.051	1.8 ± 0.035
AGUCAC	1.94 ± 0.06	1.883 ± 0.014
UGUCCG	1.925 ± 0.0047	1.8 ± 0.017
UGUCCA	1.89 ± 0.061	1.88 ± 0.057
CGUCCC	1.97 ± 0.051	1.98 ± 0.064
CGUCCA	1.957 ± 0.0057	1.924 ± 0.0032
CGUCCU	2.02 ± 0.035	2.02 ± 0.048
CGUGAG	1.85 ± 0.082	1.75 ± 0.011
CGUGAC	1.916 ± 0.0084	1.79 ± 0.04
CGUGAU	1.9 ± 0.032	1.73 ± 0.024
GGUGGU	1.96 ± 0.084	1.86 ± 0.061
GGUGGG	1.9 ± 0.028	1.47 ± 0.056
CGUAAU	1.86 ± 0.022	1.675 ± 0.013
CGUAAC	1.95 ± 0.047	1.77 ± 0.038
CGUAAG	1.95 ± 0.049	1.76 ± 0.022
CGUGCC	1.97 ± 0.039	1.922 ± 0.0033
CGUGCG	1.95 ± 0.071	1.9 ± 0.027
GGUGCA	1.92 ± 0.043	1.88 ± 0.05
